Experimental data published in publication PMC2636890.

Tests used:
[1] = biological target: soluble recombinant form of HCV E2 glycoprotein (sE2), derived from H77-E2, harbouring a His-tag (UniProt P27958); experiment: flow cytometry on cells (sE2 binding); settings: BRL3A cells expressing only the indicated SR-BI mutant; sE2-containing medium vs. sE2-free medium; mean±SD, n = 3; parent: est. 100; read off a plot
[2] = biological target: SR-BI-Short, a shorter isoform of SR-BI produced by alternative splicing that removes 100 amino acids of the ectodomain (human) (UniProt Q8WTV0)
Chain of UniProt Q8WTV0 (Q8WTV0 other isoform, or with tags, fused parts or gaps): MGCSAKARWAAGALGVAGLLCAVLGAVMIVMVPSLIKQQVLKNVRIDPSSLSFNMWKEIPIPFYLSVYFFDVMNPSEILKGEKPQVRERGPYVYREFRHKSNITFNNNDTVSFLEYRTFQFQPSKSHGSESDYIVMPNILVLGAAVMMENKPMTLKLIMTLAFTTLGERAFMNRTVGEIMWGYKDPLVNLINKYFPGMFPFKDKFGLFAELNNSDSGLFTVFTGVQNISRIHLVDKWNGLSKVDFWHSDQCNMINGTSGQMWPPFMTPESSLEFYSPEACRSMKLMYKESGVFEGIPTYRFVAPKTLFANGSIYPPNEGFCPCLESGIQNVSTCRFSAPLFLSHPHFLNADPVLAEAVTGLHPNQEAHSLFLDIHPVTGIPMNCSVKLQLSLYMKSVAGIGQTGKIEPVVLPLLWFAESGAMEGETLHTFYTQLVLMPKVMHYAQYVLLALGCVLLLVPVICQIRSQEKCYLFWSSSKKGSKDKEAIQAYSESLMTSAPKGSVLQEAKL

Substance	percent of parent (% of wt SR-BI (set to 100)) [1]	entry of HCVpp (H77 E1E2) into BRL3A-CD81-CLDN1 cells expressing the SR-BI form, fold reduction against wt SR-BI [2] [fold]
human scavenger receptor class B type I (SR-BI), wild type (from UniProt Q8WTV0-2) SES	100	–
soluble recombinant form of HCV E2 glycoprotein (sE2), derived from H77-E2, harbouring a His-tag (from UniProt P27958 384-661) (domain or fragment)	–	> 10
